# In paper PMC4937337:
# Test system: nsp1β;PCBP2 (PRRSV (SD01-08)?;human)
# Assay: EMSA
# Conditions: EMSA: 10 mM Hepes pH 7.6, 150 mM KCl, 2 mM MgCl2, 1 mM DTT, 0.5 mM ATP, 5% glycerol, 100 µg/ml porcine tRNA, RNase inhibitor; 10 nM RNA; 30°C 10 min (room …)
substance,measurement,value
PRRSV -2/-1 PRF RNA wt (58 nt),Kd,130 nM
